Results published in paper PMC6255212, “Coupled molecular dynamics mediate long- and short-range epistasis between mutations that affect stability and aggregation kinetics” (Proceedings of the National Academy of Sciences of the …, 2018).
Where a chain is given by its changes, count along the chain named. Names and notes keep the numbering of the source.

B1: Escherichia coli transketolase (TK) (Escherichia coli K-12; A282P/H192P/I365L) (protein)
chain: SSRKELANAIRALSMDAVQKAKSGHPGAPMGMADIAEVLWRDFLKHNPQNPSWADRDRFVLSNGHGSMLIYSLLHLTGYDLPMEELKNFRQLHSKTPGHPEVGYTAGVETTTGPLGQGIANAVGMAIAEKTLAAQFNRPGHDIVDHYTYAFMGDGCMMEGISHEVCSLAGTLKLGKLIAFYDDNGISIDGPVEGWFTDDTAMRFEAYGWHVIRDIDGHDAASIKRAVEEARAVTDKPSLLMCKTIIGFGSPNKAGTHDSHGAPLGDAEIALTREQLGWKYPPFEIPSEIYAQWDAKEAGQAKESAWNEKFAAYAKAYPQEAAEFTRRMKGEMPSDFDAKAKEFIAKLQANPAKIASRKASQNALEAFGPLLPEFLGGSADLAPSNLTLWSGSKAINEDAAGNYIHYGVREFGMTAIANGISLHGGFLPYTSTFLMFVEYARNAVRMAALMKQRQVMVYTHDSIGLGEDGPTHQPVEQVASLRVTPNMSTWRPCDQVESAVAWKYGVERQDGPTALILSRQNLAQQERTEEQLANIARGGYVLKDCAGQPELIFIATGSEVELAVAAYEKLTAEGVKARVVSMPSTDAFDKQDAAYRESVLPKAVTARVAVEAGIADYWYKYVGLNGAIVGMTTFGESAPAELLFEEFGFTVDNVVAKAKELL
notes: homodimer of 70- to 74-kDa monomers; holo enzyme with ThDP and Mg2+
B2: Escherichia coli transketolase (TK) (Escherichia coli K-12; A282P/G506A/H192P) (protein)
chain: B1 chain with L364I, G505A
notes: as for B1
B3: Escherichia coli transketolase (TK) (Escherichia coli K-12; A282P/G506A/H192P/I365L) (protein)
chain: B1 chain with G505A
notes: as for B1

substrate: O=CCO; assay: steady-state enzyme kinetics; assay type: biochemical, Escherichia coli; conditions: 50 mM Li-HPA (lithium beta-hydroxypyruvate, saturating), 4-80 mM glycolaldehyde

| Protein | Km | kcat |
| --- | --- | --- |
| B1 | 19.5(2.1) mM | 68.9(2.6) s-1 |
| B2 | 20.2(1.5) mM | 54.3(1.4) s-1 |
| B3 | 22.7(2.2) mM | 58.3(2.1) s-1 |
